Test results published in patent US20210292396A1.

How the values were obtained:
Assay in all cases: cell-based or functional assay
[1] = molecular target: Env of HIV isolate TH976.17 (clade AE) (HIV)
[2] = molecular target: HIV Env of isolate 3301.v1.c24 (HIV)
[3] = molecular target: Env of HIV isolate P1981.C5.3 (clade G) (HIV)
[4] = molecular target: Env of HIV isolate CH117.4 (clade BC) (HIV)
Env of SIVmac251.30.SG3 = molecular target: Env of SIVmac251.30.SG3
[5] = molecular target: HIV Env of isolate ZM249.1 (HIV)
[6] = molecular target: HIV Env of isolate TH976.17 (HIV)
[7] = molecular target: Env of HIV isolate TRO.11 (clade B) (HIV)
[8] = molecular target: Env of HIV isolate CE703010217.B6 (clade C) (HIV)
[9] = molecular target: HIV Env of isolate T280-5 (HIV)
[10] = molecular target: HIV Env of isolate ZM55.28a (HIV)
[11] = molecular target: Env of HIV isolate BR07.DG (clade B) (HIV)
[12] = molecular target: Env of HIV isolate CAP45.G3 (clade C) (HIV)
[13] = molecular target: Env of HIV isolate YU2.DG (clade B) (HIV)
[14] = molecular target: Env of HIV isolate Bal.01 (clade B) (HIV)
[15] = molecular target: Env of HIV isolate 242-14 (clade AG) (HIV)
[16] = molecular target: Env of HIV isolate 3589.v1.c4 (clade AC) (HIV)
[17] = molecular target: HIV Env of isolate DU123.06 (HIV)
[18] = molecular target: Env of HIV isolate JRFL.JB (clade B) (HIV)
[19] = molecular target: HIV Env of isolate UG024.2 (HIV)
[20] = molecular target: Env of HIV isolate T33-7 (clade AG) (HIV)
[21] = molecular target: HIV Env of isolate HT593.1 (HIV)
[22] = molecular target: Env of HIV isolate BS208.B1 (clade A) (HIV)
[23] = molecular target: HIV Env of isolate 0330.v4.c3 (HIV)
[24] = molecular target: HIV Env of isolate 16055-2.3 (HIV)
[25] = molecular target: HIV Env of isolate BJOX009000.02.4 (HIV)
[26] = molecular target: Env of HIV isolate CNE53 (clade C in Table 7) (HIV)
[27] = molecular target: Env of HIV isolate 96ZM651.02 (clade C) (HIV)
[28] = molecular target: HIV Env of isolate TH023.6 (HIV)
[29] = molecular target: Env of HIV isolate 25925-2.22 (clade C) (HIV)
[30] = molecular target: Env of HIV isolate UG037.8 (clade A) (HIV)
[31] = molecular target: Env of HIV isolate A07412M1.vrc12 (clade D) (HIV)
[32] = molecular target: HIV Env of isolate 16936-2.21 (HIV)
[33] = molecular target: HIV Env of isolate CH181.12 (HIV)
[34] = molecular target: HIV Env of isolate Q168.a2 (HIV)
[35] = molecular target: Env of HIV isolate 3337.v2.c6 (clade CD) (HIV)
[36] = molecular target: HIV Env of isolate 3873.v1.c24 (HIV)
[37] = molecular target: Env of HIV isolate R3265.c6 (clade AE) (HIV)
[38] = molecular target: HIV Env of isolate CH117.4 (HIV)
[39] = molecular target: HIV Env of isolate Q259.17 (HIV)
[40] = molecular target: Env of HIV isolate CNE30 (clade C in Table 7) (HIV)
[41] = molecular target: HIV Env of isolate QH209.14M.A2 (HIV)
[42] = molecular target: HIV Env of isolate DJ263.8 (HIV)
[43] = molecular target: HIV Env of isolate KER2018.11 (HIV)
[44] = molecular target: HIV Env of isolate 0260.v5.c36 (HIV)
[45] = molecular target: Env of HIV isolate ZM197.7 (clade C) (HIV)
[46] = molecular target: HIV Env of isolate 0921.v2.c14 (HIV)
[47] = molecular target: Env of HIV isolate Q23.17 (clade A) (HIV)
[48] = molecular target: Env of HIV isolate 247-23 (clade D) (HIV)
[49] = molecular target: Env of HIV isolate DU422.01 (clade C) (HIV)
[50] = molecular target: Env of HIV isolate A03349M1.vrc4a (clade D) (HIV)
[51] = molecular target: Env of HIV isolate REJO.67 (clade B) (HIV)
[52] = molecular target: HIV Env of isolate MB201.A1 (HIV)

## PGT121 (antibody)
[1]
  IC50, pseudovirus neutralization: > 50 µg/mL
[2]
  IC80: 0.05 µg/mL
[3]
  IC50, pseudovirus neutralization: 0.007 µg/mL
[4]
  IC50, pseudovirus neutralization: > 50 µg/mL
Env of SIVmac251.30.SG3
  IC80, pseudovirus neutralization: > 50 µg/mL
[5]
  IC80, pseudovirus neutralization: > 50 µg/mL
[6]
  IC80: > 50 µg/mL
[7]
  IC50, pseudovirus neutralization: 0.0203 µg/mL
[8]
  IC50, pseudovirus neutralization: 0.007 µg/mL
[9]
  IC80: 0.038 µg/mL
[10]
  IC80, pseudovirus neutralization: 0.216 µg/mL
[11]
  IC50, pseudovirus neutralization: 0.132 µg/mL
[12]
  IC50, pseudovirus neutralization: 0.866 µg/mL
[13]
  IC50, pseudovirus neutralization: 0.0397 µg/mL
[14]
  IC50, pseudovirus neutralization: 0.0113 µg/mL
[15]
  IC50, pseudovirus neutralization: > 50 µg/mL
[16]
  IC50, pseudovirus neutralization: > 50 µg/mL
[17]
  IC80, pseudovirus neutralization: 0.135 µg/mL
[18]
  IC50, pseudovirus neutralization: 0.0397 µg/mL
[19]
  IC80, pseudovirus neutralization: > 50 µg/mL
[20]
  IC50, pseudovirus neutralization: > 50 µg/mL
[21]
  IC80: > 50 µg/mL
[22]
  IC50, pseudovirus neutralization: > 50 µg/mL
[23]
  IC80: 0.211 µg/mL
[24]
  IC80, pseudovirus neutralization: 2.78 µg/mL
[25]
  IC80: 9.02 µg/mL
[26]
  IC50, pseudovirus neutralization: 0.0263 µg/mL
[27]
  IC50, pseudovirus neutralization: 0.0213 µg/mL
[28]
  IC80: > 50 µg/mL
[29]
  IC50, pseudovirus neutralization: 0.045 µg/mL
[30]
  IC50, pseudovirus neutralization: 0.092 µg/mL
[31]
  IC50, pseudovirus neutralization: 0.042 µg/mL
[32]
  IC80, pseudovirus neutralization: 0.024 µg/mL
[33]
  IC80, pseudovirus neutralization: 0.083 µg/mL
[34]
  IC80: > 50 µg/mL
[35]
  IC50, pseudovirus neutralization: 1.39 µg/mL
[36]
  IC80, pseudovirus neutralization: 0.113 µg/mL
[37]
  IC50, pseudovirus neutralization: > 50 µg/mL
[38]
  IC80, pseudovirus neutralization: > 50 µg/mL
[39]
  IC80: > 50 µg/mL
[40]
  IC50, pseudovirus neutralization: 0.114 µg/mL
[41]
  IC80: > 50 µg/mL
[42]
  IC80: 0.202 µg/mL
[43]
  IC80: > 50 µg/mL
[44]
  IC80: 0.159 µg/mL
[45]
  IC50, pseudovirus neutralization: > 50 µg/mL
[46]
  IC80, pseudovirus neutralization: > 50 µg/mL
[47]
  IC50, pseudovirus neutralization: 0.0107 µg/mL
[48]
  IC50, pseudovirus neutralization: > 50 µg/mL
[49]
  IC50, pseudovirus neutralization: 0.062 µg/mL
[50]
  IC50, pseudovirus neutralization: 0.0747 µg/mL
[51]
  IC50, pseudovirus neutralization: 1.96 µg/mL
[52]
  IC80: 0.0283 µg/mL
